Experimental data as given in the supplement of paper PMC12042874.
± gives the uncertainty stated by the source.

Experiment: amyloid nucleation score (Sup35N fusion, yeast selection) (log enrichment); library NNK2; higher = more nucleation; inactive = no reads after selection
Procedure, shortened: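 Libraries of peptides of 20 random codons fused to Sup35N were expressed in psi-negative yeast and induced 24 hours with 100 μM copper sulfate. Selection was 7 days at 30°C on medium lacking adenine and uracil, and plasmid inserts were Illumina-sequenced before and after selection. Nucleation score is the DiMSum log enrichment of output over input reads, centred on the mode score of non-aggregating sequences, and sequences with under 100 input reads were left out.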

Going from YPEPKQWVSVSALHLVRGLR to YPISLWLFYGGSGAQTLVVR, the amyloid nucleation score rises from 0.995 ± 0.2 to 2.51 ± 0.1.

Going from YPMNSVPDI to YPPSVLFVSALHQVGTMSGG, the amyloid nucleation score rises from -0.858 ± 0.48 to 0.003 ± 0.3.

Going from YPPWVSGVMIVMGHLRRCSA to YPYDWSLLVLELVRQILSMG, the amyloid nucleation score falls from 1.93 ± 0.43 to 0.704 ± 0.47.

Going from YQDWGSSTLLIVIKSWAGET to YQINCLGSYDNLQCMIGGHV, the amyloid nucleation score rises from -1.02 ± 0.33 to 5.965 ± 0.037.

YQMADVPLNRMGHYPVYEGW and YQMVTCWAYDSQDIGSWCAG are within error of each other in amyloid nucleation score: -0.845 ± 0.76 for the first, -0.012 ± 1.1 for the second.

Going from YQNIFLRTAALRAGSAD to YQNVVCRDIQIGFWNLADSI, the amyloid nucleation score rises from 0.765 ± 0.24 to 5.824 ± 0.056.

YRATYVLRVAFSWVVSCPGD and YRCYTSGFLFFHGSCLNCKS are within error of each other in amyloid nucleation score: -0.377 ± 0.41 for the first, 0.227 ± 1.1 for the second.

Going from YRDRDLC to YRFKIMCLVSPHFV, the amyloid nucleation score rises from -0.339 ± 0.34 to 0.736 ± 0.6.

Compared with YRFRVLCQVCNHGLRYKFFT, YRFVLVRNKVSYH is lower in amyloid nucleation score: 0.372 ± 0.37 for the first, -0.827 ± 0.33 for the second.

YRKSWVWVLLESASAMLIGL and YRLGGWEVNWRLDFYHRRGM are within error of each other in amyloid nucleation score: 0.682 ± 0.22 for the first, 1.21 ± 0.32 for the second.

First: YRLIDVYWS
Second: YRPAWMDWF
The amyloid nucleation score of the first is lower: -0.632 ± 1.1 for the first, 1.78 ± 0.16 for the second.

Compared with YRPCGRTSPCGSGYKVSNEF, YRRLCWPWFRKLFEVYRDN is lower in amyloid nucleation score: 1.57 ± 0.15 for the first, -0.554 ± 0.63 for the second.

First: YRSAYFMFTVDHFGLELFFL
Second: YRSSSWVNWIQWH
The amyloid nucleation score of the first is lower: 2.45 ± 0.12 for the first, 3.47 ± 0.095 for the second.

First: YRVYLQRHSGA
Second: YRYLLVLSWRSMFAHRLLPS
The amyloid nucleation score of the first is higher: 3.78 ± 0.069 for the first, 1.5 ± 0.5 for the second.

First: YSASQTWCKQPIDCFIRGQN
Second: YSEMRDSQAVVAYESRVVKP
The amyloid nucleation score of the first is lower: -0.605 ± 0.41 for the first, 0.798 ± 0.46 for the second.

Going from YSEVTVRSSAAL to YSGKNIAGLNFSIRCCSSIE, the amyloid nucleation score rises from 0.863 ± 0.29 to 8.793 ± 0.036.

First: YSLMCQFHSSPISFFLCWLP
Second: YSMGAYTVSMGACA
The amyloid nucleation score of the first is higher: 8.157 ± 0.071 for the first, -1.05 ± 1.1 for the second.

Compared with YSMPRSN, YSNSDTAMSLGARLAYGVL is higher in amyloid nucleation score: -0.548 ± 0.45 for the first, 5.379 ± 0.05 for the second.

Compared with YSSAGGHRLMGMGRIRYKTG, YSYEHTRWTSLGGWHLR is higher in amyloid nucleation score: 0.026 ± 0.56 for the first, 4.66 ± 0.069 for the second.

Compared with YSYWLSILRNVEL, YTCCLL is higher in amyloid nucleation score: 4.18 ± 0.079 for the first, 5.914 ± 0.035 for the second.

YTLRSNTNASMRRHLMQVPR and YTMWGWLAAMVREMETLGSK are within error of each other in amyloid nucleation score: -0.531 ± 1.1 for the first, -0.284 ± 0.61 for the second.

First: YTNSQYSPLPQQSNLKVSNI
Second: YTNTKKVLLVSVNVPRFLPV
The amyloid nucleation score of the first is lower: -0.716 ± 0.56 for the first, 1.99 ± 0.17 for the second.

First: YTRGCSFHIRVSSLCGQYNI
Second: YTVFSTESPCWISQSKLRLA
The amyloid nucleation score of the first is higher: 1.65 ± 0.18 for the first, -0.825 ± 0.78 for the second.

Compared with YTVPSQNKWVENLMNWRGYR, YVCLRRWNWRMKLTCVSKLG is higher in amyloid nucleation score: -0.663 ± 0.23 for the first, 0.734 ± 0.35 for the second.

YVCPIHLSDYEVTLECKSHG and YVCRSGWDLVAKFGILRREE are the same in amyloid nucleation score: 2.17 ± 0.18 for the first, 2.17 ± 0.2 for the second.

Going from YVEVLSKVAWASDCSRIEYA to YVFLGD, the amyloid nucleation score rises from -0.342 ± 1.1 to 2.35 ± 0.11.

First: YVFYLVR
Second: YVLFLVRWRVNRV
The amyloid nucleation score of the first is lower: 1.03 ± 0.24 for the first, 2.19 ± 0.11 for the second.

YVLQYTVKSDVWGTKAIRRP and YVMNQPDKVWSHIESGNKRH are within error of each other in amyloid nucleation score: 0.007 ± 0.79 for the first, -1.34 ± 0.62 for the second.

Going from YVPDGAQARLDASIFIVCSR to YVQTSKCGS, the amyloid nucleation score rises from 5.23 ± 0.055 to 7.1 ± 0.055.

First: YVRRVASGAFCMKFRSTIRR
Second: YVSGGVKAFSFLSVCYLSPW
The amyloid nucleation score of the first is lower: 1.98 ± 0.084 for the first, 7.586 ± 0.066 for the second.

Compared with YVVEHQLMYAVWLFALGGSN, YVYDISGRITVNPITYKCQL is lower in amyloid nucleation score: 0.655 ± 0.24 for the first, -1.16 ± 0.64 for the second.

YWFPEASMFLIPL and YYEVCPI are within error of each other in amyloid nucleation score: -1.49 ± 1.1 for the first, -0.076 ± 0.44 for the second.

Going from YYFIG to YYFKFNSS, the amyloid nucleation score rises from 0.673 ± 0.24 to 3.65 ± 0.12.

Going from YYHYYFGFCDNM to YYNSCKVN, the amyloid nucleation score falls from 0.664 ± 0.33 to -1.35 ± 1.1.

Compared with YYRYRHLMHLIKWME, YYSVMWYLMERAIN is lower in amyloid nucleation score: 0.216 ± 0.53 for the first, -0.975 ± 0.35 for the second.

Going from YYSYYWQTNHID to YYTQRAAFIWKVICKVDVYV, the amyloid nucleation score rises from -1.68 ± 0.62 to 2.46 ± 0.18.

First: YYVFYMVVVCNVITIRQNHM
Second: YYVWVI
The amyloid nucleation score of the first is higher: 1.49 ± 0.28 for the first, -0.698 ± 0.78 for the second.

Work on YYWASRLVMPCSNRWRLYLQ yielded an amyloid nucleation score of -0.474 ± 1.

With YQSDK the amyloid nucleation score was “inactive”.
With YSCVDAYG the amyloid nucleation score was “inactive”.
With YSFCKCVIVGIWFRLGWCQA the amyloid nucleation score was “inactive”.
In the case of YSGLSNLLGKMKRGSSLWVD, the amyloid nucleation score is reported as “inactive”.
For YSIFHFYLKGFGSTW, the amyloid nucleation score was “inactive”.
With YTAFLFICTRALLMPDMKFL the amyloid nucleation score was “inactive”.
In the case of YVFLWWLKFCFGYH, the amyloid nucleation score is reported as “inactive”.
For YVLSSLRICYTMLSM, the amyloid nucleation score was “inactive”.
With YVYERIDSERRTRPCKKKMY the amyloid nucleation score was “inactive”.
For YWLECILSGVYHDGYDSYSL, the amyloid nucleation score was “inactive”.
In the case of YWNQNCELTVFSN, the amyloid nucleation score is reported as “inactive”.
